Source: a protein production outcome set (Wang et al. 2014)

Assay: label from the status in PepcDB records

MKQIAFIGLGHMGAPMATNLLKAGYLLNVFDLVQSAVDGLVAAGASAARSARDAVQGADVVISMLPASQHVEGLYLDDDGLLAHIAPGTLVLECSTIAPTSARKIHAAARERGLAMLDAPVSGGTAGAAAGTLTFMVGGDAEALEKARPLFEAMGRNIFHAGPDGAGQVAKVCNNQLLAVLMIGTAEAMALGVANGLEAKVLAEIMRRSSGGNWALEVYNPWPGVMENAPASRDYSGGFMAQLMAKDLGLAQEAAQASASSTPMGSLALSLYRLLLKQGYAERDFSVVQKLFDPTQGQ
protein production: not failed

MAKTLFWLCLLLPFYAWVGYPLLLALLSLFVRPRPVQEGAPLSVSVIIAAHNEGPHIEHKLRTLLQQDYPATDLQIILASDGSSDDTVATALGVRDSRIVVLDLPRVGKAGALNAAVELARNDILVFTDADNQWSHDTLGKLLAPLSDPQVGACGGHMIIPDPGHNLSLGDSLYRHYEAWLRQAENRTGCMVSADGALLALRRELFQRIPAEVNDDFFISTCAPVAGKRIVYVEEAQVLDQGVDEAGKQYRRRLRVTVGGLQSLAQRRELMNPLRHGAYAIALISHKLIRRLAPVLLLPLLVSSLLLWNAGAFYSLALLAQVLGYGAGIMGLLDRRGRLPKVFRLAGFVLVTMAGMSMGLWQFLRGQRYALWNPQQNR
protein production: failed

MNSFPAQNLMLSATNANKDSGLRTSNAHWLHSCIAVPKTTGIDLSQEPPAEGVMVPQSHLFPPPIRDSRNDTETVKQKSVNQSPSKALKPKPQRKKRSVSNKSKKTPSIPETKREKKNLDINIDISSFDTSGVPPPVCSCTGVSRVCYKWGMGGWQSSCCTISISTYPLPMSTTRPGARLAGRKMSNGAYVKLLARLADEGYDLSHPLDLKNHWARHGTNKFVTIK
protein production: failed

MHEIFTMMLAVYDRAALMLICLFFLIRLRLFRELLHKSAHTPKELLAVTAIFSLFALFSTWSGVPVEGSLVNVRIIAVMSGGILFGPWVGAIVGAIAGVHRYLIDIDGVTAVPCFITSIVAGLLSGLINRKVAREQRWKIGILAGMMCETLTMILVVVWAPSLSLGVDIVSKIGIPMILGSVCIGFIVLLVQSVEGEKEASAARQAKLALDIANKTLPLFRHVNSDSLRQVCEIIRRDITADAVAITNTEHVLAYVGVGEANYQRHDDMISPTTRQAIRYGKIIIKNNDEAHRTPEIHSLMVIPLWEKGVVTGTLKIYYCHAHRITSTLQEMAIGLSQIISTQLEVSRAEQLREMANKAELRALQSKINPHFLFNALNAISSSIRLNPDTARQLIFNLSRYLRYNIELKDDEQIDIKRELYQIKDYIAIEQARFGDKLTVIYDIDDDVSCVIPSLLIQPLVENAIVHGIQPCKGKGVVTIGINECGNRVRISVRDTGNGIDPAVVARVEADEMPGNKIGLLNVHHRVKLLYGEGLHIRNLTPGTEIAFYVPNNSTPQALTESLLS
protein production: failed

MSKTLKEITDQKNELKKFFENFVLNLEKTEIFSEIQKNLTDEVLFVGCGSSYNLALTISYYFERVLKIRTKAIPAGEVAFQKIPDLEERGLAFLFSRTGNTTEVLLANDVLKKRNHRTIGITIEEESRLAKESDLPLVFPVREEAIVMTKSFSMILLSLMFLADKIAGNSTERFSELVGYSPEFFDISWKVIEKIDLKEHDHFVFLGMSEFFGVSLESALKCIEMSLTFSEAYSTLEYRHGPKALVKKGTLVFMQKVSGMDEQEKRLRKELESLGATVLEVGEGGDIPVSNDWKSAFLRTVPAQILGYQKAISRGISPDKPPHLEKTVVL
protein production: not failed

MSLNGITKYVEKLTFFNIQSGKQVEFNRDEKVILSNVPFIQQLPELDRGCEVTSLAMMLQYAGITVDKMKLANEIKKVDFMNDGVRGNPNEGFVGNIYTFSESGYGVYHGPLFQLAKKYLPNKAVDLTGKSIEELYKSVKAGQPVVIITNATFAPLDEDEFTTWETNNGDVSITYNEHCVVLIGYDQESVYIRDPLKDSLDVKVPREKFEQAWVQMGSQAISYVKRSKEGHHHHHH
protein production: not failed

MGTARTLTAAGGEPAFRGNDRLLLGIILGVLTFWLFAQTTLNIAPDMRRDLGTGESLMNIAVALTALFSGIFIVVMGGLADRVGRVRMVRLGFLASIAGSLLVGLAPAGGLAVAFLLAGRALQGLSGACIMPASLALVKAYWDGAERQRAISLWSIGSWGGSGVCSLFGGLVTQHLGWRWIFFASVLVAIAGLLLLRGTPESRAEGGAADYRFDLAGVLTFMVAMVALQVVVTQGNQLGWTSPASLGLVAATIVFGWLFLRIERRARSPFIDFGLFRSPTYTGATISNFLLNGVAGTLIVSLQLVQVGGGMSAQRAGVLTLGYAVAIIAFIRVGEKLLRRFGARRPMLWGCAITGASILLLAPSNVMLARYEVMAVIGYTLFGVGLAFYATPSTDAALSNLPASQAGAGSGLYKMASSLGAAFGVAISAAIFTALRAAPQSVSWLEGVITFQGRQDNLAVREAAIIALGFNELMVVVAIVSIVLTIPEGERRQGA
protein production: failed

MQRLLLANDLPGVGKVALATSIPIAAACQVETMLLPTVLLSSHTGGFPDVVIEDMTDLNQAYFEQWKNLNLELAGILSGYCRNPQQLSQLAMYAKHTETPLIVDPIMGDSGRLYTGFTSSYVEAMKELTQSAQLILPNITEASLLTGRNYLGDSYDIHDIEDLLEALAEQVSADIVLTGISFDDSQIGVAYFQQETGEITTYMSKKYPANFFGTGDILSTLLAVATIQQINLHQAIPLALDFIDKSLERTLALDRDLKFGISFEPFLAELQQAFQILKEKL
protein production: failed

MENPDSAFLLFRNAPRLPLATMHTPLCGDSHQPDFAFRKPARDALLRPWNGRNHRCGLQDGREICQGQLPAHQKSYWSDCAALPRLFRAYGGAVVRGFLIVGNKAFTQPFSLNDLPGAGRMDVLCRCTSQALFISHGIRRDVEVYLLLLGPPSPPKSILIKGDEVRRMSPDERNVAGHIKKALAVECGKSWKKVHSGVYVSRKGLEELIEELSEKYSIIYLKEDGVDISNAQLPPNPLFVIGDHEGLTEEQEKVVERYAALKLSLSPLSLLAEQCVVIAHHHLDRLQF
protein production: failed

MTSYTAAGLGELVQRDGALVNGRIYTDPEIFGLEMERIFSKVWVYVGHESQVANPGDYMTGYLAQQPIILTRDRAGQIHVLFNRCTHRGAKIVNRERGNERLLTCMYHGWAFGHDGELRGIPLKKDFPAEAVEPCKASLARPPRVDAYRGFIFASLNPDVEPLRDYLGAAASGIDEIVDRAPAGTIRLSAGCHRYIYEGNWKLQTDNLGDMYHPVACHSSTVDEDGKQFKRRPGDEGGRAAFLGADGEPIVIQTGVRGFLRGHSSEASLFGANDIVKEETRQRGGIIDEYRSLLIEQHGVEKTDEILKNRRHSMTLFPNLDVLMVQTSVRVVIPLAYNRTEVRIYPVHLDGAPDELNRQIIKFLNITHSAASFIQTDDLEAFKRQQEGLAARSPQWLIVARGQGSEIDEGNGAYFGPRASEVGQRMRHQYWRELMMAE
protein production: failed

MKKLLRNLFGSGREEEKRSASDAMSGREQIVTNSEKSNLSTDPDHVNRQADTLKFDAIRAMNMGELVFATEALRKAMELRPEFETRYYLTEALLRRHLTEEALAQMNLLLEEVPMHTATLLNRAKLRLEQNDPSRALEDCGTGIESTSELEEQALFLYYGASAMKDMKNLKDALCLLKQAIEKNDAFIPARLLRARILIDLERYEEATQDLDWVAASDPEEEQVPMLRARLFMLEGKQQNAIQAYEELLSLDPFNEEGHCGIATLMIKEGRSAEAETFLREAIEEMPVQRNLILMLVEILENKGQTQEAAEWRAKLPEAEVESEAVNFNDLYKGNLY
protein production: failed

MIKVAESRTSWVASVFGLAALYVLGTVTPLEDIDSHLGGVNVTNLLQAIFALLAIFFFNDSVRRLANVPVVRWTYYAPLLSIPVMIASFSLIADKAPTAADFIDTRMDQLATAVYSGTYMFALLFTVLRIIYMLRHNAKGPYATFSAGLMVVAVAVSCHIAYVVLYYFSPWDDFARAIGTWFDRLFYIGLTVTAAGWLILFLSKQLPRLRLWMIDALWLTAMRMRVNADRSRVSPAWDLFNETLENGVYKSLIVLHNYERVNLMEFPESVQGRISHIEAKLDAQT
protein production: failed

MGYKDEIGVIGIDDAPFNKFDKEALIVGTYMRGNKLVDEISFKKIEKDGFDSTEKILKIVKDKHFTKINAIFLDGVTFGGFNIADIVKIYNETKIPVIAVMEKEPDLLKMKSALKKYFFDFPEKIEMLESFPKPEPFENIFIQCIGISFEDACKLIKKTRLRSKIPECLRISHLVGRGFLNME
protein production: failed
